Results published in US20250270339A1 (Alector, published 2025).

T1: huTfR Apical Domain-Avi-His (human, biotin on the Avi tag (BirA) where captured on streptavidin)
T1 construct: also called huTfR apical Avi-His; hTfR Apical
T1 chain: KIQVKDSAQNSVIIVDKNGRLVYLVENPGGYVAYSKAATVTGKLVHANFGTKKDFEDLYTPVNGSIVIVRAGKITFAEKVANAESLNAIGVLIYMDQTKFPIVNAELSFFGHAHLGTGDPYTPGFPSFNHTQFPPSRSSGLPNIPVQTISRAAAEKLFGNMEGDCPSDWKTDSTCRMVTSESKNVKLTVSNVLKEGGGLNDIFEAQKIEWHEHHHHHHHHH


Key:
[1] = biological target: T2, Full length Mouse TfR on CHO cells (mouse, UniProt Q62351 1-763); assay: FACS MFI, supernatant
T2 construct: also called CHO + muTfR
T2 sequence (Q62351 whole entry): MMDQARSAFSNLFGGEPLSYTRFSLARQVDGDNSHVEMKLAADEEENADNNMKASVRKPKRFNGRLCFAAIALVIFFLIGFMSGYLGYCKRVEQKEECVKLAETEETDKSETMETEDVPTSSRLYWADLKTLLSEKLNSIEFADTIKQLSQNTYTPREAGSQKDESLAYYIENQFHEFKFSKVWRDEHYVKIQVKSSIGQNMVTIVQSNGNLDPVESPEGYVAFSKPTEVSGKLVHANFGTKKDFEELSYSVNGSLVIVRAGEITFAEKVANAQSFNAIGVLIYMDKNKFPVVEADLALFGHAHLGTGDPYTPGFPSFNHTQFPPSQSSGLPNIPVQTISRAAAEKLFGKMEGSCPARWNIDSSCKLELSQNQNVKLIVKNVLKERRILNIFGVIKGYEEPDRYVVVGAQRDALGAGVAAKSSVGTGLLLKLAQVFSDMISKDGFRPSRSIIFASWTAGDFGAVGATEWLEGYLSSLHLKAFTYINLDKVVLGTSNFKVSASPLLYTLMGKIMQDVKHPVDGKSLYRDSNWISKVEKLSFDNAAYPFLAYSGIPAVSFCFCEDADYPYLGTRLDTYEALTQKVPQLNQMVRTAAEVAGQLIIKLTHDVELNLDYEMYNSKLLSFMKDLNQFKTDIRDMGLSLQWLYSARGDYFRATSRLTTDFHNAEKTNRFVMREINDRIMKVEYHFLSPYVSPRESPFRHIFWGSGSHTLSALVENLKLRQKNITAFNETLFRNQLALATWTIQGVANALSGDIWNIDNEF
Experimental: (§1) A total of 1536 anti-TfR hybridoma supernatants were initially screened for their ability to differentially bind CHO cells overexpressing human or mouse TfR cells compared to CHO parental cells by FACS. Overexpressing cells were harvested, washed and labeled with Pacific Blue, FITC and Pacific Orange dyes (ThermoFisher) to create uniquely barcoded cell populations. Barcoded cells (5×10⁴ of each cell population) were aliquoted into 96-well U-bottom plates and incubated with 50 μl of hybridoma cell culture supernatant or […] of commercially available purified mouse anti-human TfR monoclonal antibody (Sigma Aldrich, Cat #SAB4700515) and rat anti-mouse TfR antibody (Invitrogen, Waltham, MA, Cat #R17217) on ice for 30 minutes. After this primary incubation, the supernatants were removed via centrifugation, the cells were washed twice with 175 μl of ice-cold FACS buffer (PBS+1% FBS+2 mM EDTA), and the cells were then further incubated on ice for 20 minutes with anti-mouse IgG Fc-allophycocyanin (APC) or anti-rat IgG Fc-APC (Jackson Labs, Cat #115-136-071 and Cat #112-136-071, respectively) (diluted 1:1000). Following this secondary antibody incubation, the cells were again washed twice with ice-cold FACS buffer and resuspended in a final volume of 50 μl of FACS buffer. Binding intensity on cells was analyzed using the FACS Canto system (BD Biosciences), and the ratio of APC Mean Fluorescence Intensity (MFI) on each barcoded cell population was determined for each anti-TfR hybridoma supernatant tested.

[2] = biological target: T3, Full length human TfR on CHO cells (human, UniProt P02786 1-760); assay: FACS MFI, supernatant
T3 construct: also called CHO + huTfR; CHO + hTfR
T3 sequence (P02786 whole entry): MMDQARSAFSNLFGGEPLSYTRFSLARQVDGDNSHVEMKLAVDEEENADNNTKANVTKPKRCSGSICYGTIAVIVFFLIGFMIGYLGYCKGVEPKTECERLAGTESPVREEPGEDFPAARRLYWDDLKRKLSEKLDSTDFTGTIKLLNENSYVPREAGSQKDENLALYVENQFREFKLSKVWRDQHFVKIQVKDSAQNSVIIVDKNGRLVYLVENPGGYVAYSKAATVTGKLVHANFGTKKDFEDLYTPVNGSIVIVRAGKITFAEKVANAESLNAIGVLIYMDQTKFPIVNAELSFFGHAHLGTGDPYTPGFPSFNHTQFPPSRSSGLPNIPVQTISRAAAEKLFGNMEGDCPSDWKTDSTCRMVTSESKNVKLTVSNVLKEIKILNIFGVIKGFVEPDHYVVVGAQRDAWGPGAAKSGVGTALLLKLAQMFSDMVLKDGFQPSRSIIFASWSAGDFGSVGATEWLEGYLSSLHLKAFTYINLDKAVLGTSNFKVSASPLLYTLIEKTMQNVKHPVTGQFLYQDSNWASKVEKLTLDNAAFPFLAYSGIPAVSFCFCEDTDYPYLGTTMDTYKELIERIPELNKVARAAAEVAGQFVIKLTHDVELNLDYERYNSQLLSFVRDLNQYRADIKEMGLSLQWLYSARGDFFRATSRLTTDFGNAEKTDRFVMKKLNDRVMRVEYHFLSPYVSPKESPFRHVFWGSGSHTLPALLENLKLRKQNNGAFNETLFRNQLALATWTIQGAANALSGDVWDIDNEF
Experimental: as §1

[3] = biological target: T2, Full length Mouse TfR on CHO cells; assay: FACS, CHO+muTfR
Experimental: as §1

[4] = biological target: T1, huTfR Apical Domain-Avi-His; assay: ELISA OD450, supernatant
Experimental: Hybridoma culture supernatants from 319 hybridomas obtained as described above were screened for their ability to bind Avi-His-tagged huTfR ECD, huTfR apical domain, and muTfR ECD (as described in Example 1) as compared to binding to an irrelevant Avi-His-tagged control protein. Briefly, 96-well polystyrene plates were coated with 5 μg/ml of streptavidin (Thermo Fisher, Cat #PI21125) in coating buffer (0.05M carbonate buffer, pH 9.6, Sigma, Cat #C3041) overnight at 4° C. Coated plates were then blocked with ELISA diluent (PBS+0.5% BSA+0.05% Tween20) for one hour. Blocking buffer was removed and Avi-His-tagged human TfR, human TfR apical domain, mouse TfR and an irrelevant Avi-His-tagged protein were added at 1 μg/ml in ELISA diluent and captured for 1 hour at room temperature. After washing three times with 300 μl of PBST (PBS+0.05% Tween20, Thermo 28352), the hybridoma cell culture supernatants were added (50 μl/well) to each well. After 30 minutes of incubation at room temperature, the plates were washed three times with 300 μl of PBST. Anti-mouse IgG Fc-HRP or anti-rat IgG Fc-HRP (Jackson Immunoresearch, Cat #115-035-071 and 112-036-071, respectively) secondary antibodies were diluted 1:5000 in ELISA diluent, added to each well at 50 μl/well, and incubated for 30 minutes at room temperature with shaking. After a final set of washes (3×300 μl in PBST), 50 μl/well of BioFx TMB substrate (Surmodics, Cat #TMBW-1000-01) was added to the wells. The reaction was then quenched after 5-10 mins with 50 μl/well of 2N sulfuric acid. The plates were read for absorbance at 450 nm on a SpectraMax M5 (Molecular Devices, Sunnyvale, CA) using SoftMax Pro software.

fold over parental (CHO WT) [1] [fold] | fold over parental (CHO WT) [2] [fold] | binding result [3] | ratio over irrelevant protein [4] [fold] | Binder
1 | 137 | no binding | 25 | TfR32 (mouse hybridoma antibody) (antibody, V domains shown, mouse IgG in hybridoma supernatant) VH: QVQLQQSGADLVRPGTSVKVSCKASGNAFSNYLIEWVKQRPGQGLEWIGVINPGSGETNYNEKFKGKATLTADKSSSTAYMQLSSLTSDDSAVYFCAIRYDGPLLDHWGQGTSVTVSS VL: SIVMTQTPKFLLVSAGDRVTITCKASQSVSNDVAWFQQKPGQSPKLLIYYASNRYTGVPDRFTGSGYGTDFTFTIRNVQAEDLAVYFCQQDYISPTFGAGTKLELK
1 | 135 | no binding | 33 | TfR25 (mouse hybridoma antibody) (antibody, V domains shown, mouse IgG in hybridoma supernatant) VH: QVQLQQSGPELVKPGTSVKMSCKASGYTFTNYYIHWMKQRPGQGLEWIGWIYPGDGNTHYNERFKGKTTLTADKSSSTVYMFLTSLTSEDSAIYFCAKDKDMPGMDYWGQGTSVTVSS VL: DMVMTQSPSSLTVTAGEKVTMSCKSSQSLFNSENQKNYLTWYQQKPGQPPKLLISWASTRESGVPDRFTGSGSGTDFTLTINSVQAEDLAVYYCQNDYSYPLTFGAGTKLELK
1 | 285 | no binding | 35 | TfR26 (mouse hybridoma antibody) (antibody, V domains shown, mouse IgG in hybridoma supernatant) VH: QVQLHQSGPELVKPGASVKMSCKASGYTFTNYYIHWVKQRPGQGLEWIGWIYPGDGVTHYNEKFKGKTTLTADKSSSTAYMLLSSLTSEDSAIYFCARDKDVPGMDYWGQGTSVTVSS VL: DIVMTQSPSSLTVTSGEKVTMSCKSSQSLLNSENQKNYLTWYQQKPGQPPKLLIYWASTRESGVPDRFTGSGSGPDFTLTISSVQAEDLAVYYCQNDYSYPLTFGAGTKLELK
